According to PMC2654577:
Read-outs that look alike come from different tables or passages of the source.

Assays:
Test in all cases: enzyme inhibition kinetics
[1] = molecular target: full-length factor XIa with a Gln substitution for Arg-37 (human)
[2] = molecular target: factor XIa catalytic domain K170A (human) (UniProt P03951)
[3] = molecular target: factor XIa catalytic domain R173A (human) (UniProt P03951)
[4] = molecular target: factor XIa catalytic domain R171A (human) (UniProt P03951)
[5] = molecular target: factor XIa catalytic domain K175A (human)
[6] = molecular target: factor XIa catalytic domain K179A (human)
[7] = molecular target: full-length factor XIa with a Gln substitution for Arg-37 (human); remark: listed apart in the source
[8] = molecular target: full-length factor XIa autolysis loop variant fXIa-144-149A (human)
[9] = molecular target: factor XIa catalytic domain K170A (human) (UniProt P03951); remark: listed apart in the source
[10] = molecular target: factor XIa catalytic domain R173A (human) (UniProt P03951); remark: listed apart in the source
[11] = molecular target: factor XIa catalytic domain R171A (human) (UniProt P03951); remark: listed apart in the source
[12] = molecular target: factor XIa catalytic domain K175A (human); remark: listed apart in the source
[13] = molecular target: factor XIa catalytic domain K179A (human); remark: listed apart in the source
[14] = molecular target: factor XIa catalytic domain K170A (human) (UniProt P03951); remark: listed apart in the source
[15] = molecular target: factor XIa catalytic domain R171A (human) (UniProt P03951); remark: listed apart in the source
[16] = molecular target: factor XIa catalytic domain K175A (human); remark: listed apart in the source
[17] = molecular target: wild type recombinant factor XIa, full length (human)
[18] = molecular target: factor XIa catalytic domain K179A (human); remark: listed apart in the source

k2 (second-order inhibition rate constant) [1]: 2620 M⁻¹ s⁻¹
k2 (second-order inhibition rate constant) [2]: 610 M⁻¹ s⁻¹
k2 (second-order inhibition rate constant) [3]: 560 M⁻¹ s⁻¹
k2 (second-order inhibition rate constant) [4]: 1200 M⁻¹ s⁻¹
k2 (second-order inhibition rate constant) [5]: 550 M⁻¹ s⁻¹
k2 (second-order inhibition rate constant) [6]: 680 M⁻¹ s⁻¹
k2 (second-order inhibition rate constant) [7]: 1550 M⁻¹ s⁻¹
k2 (second-order inhibition rate constant), maximal [8]: 200000 M⁻¹ s⁻¹
k2 (second-order inhibition rate constant) [9]: 230 M⁻¹ s⁻¹
k2 (second-order inhibition rate constant) [10]: 210 M⁻¹ s⁻¹
k2 (second-order inhibition rate constant) [11]: 490 M⁻¹ s⁻¹
k2 (second-order inhibition rate constant) [12]: 180 M⁻¹ s⁻¹
k2 (second-order inhibition rate constant) [13]: 250 M⁻¹ s⁻¹
k2 (second-order inhibition rate constant) [14]: 12000 M⁻¹ s⁻¹
k2 (second-order inhibition rate constant) [15]: 18000 M⁻¹ s⁻¹
k2 (second-order inhibition rate constant) [16]: 17000 M⁻¹ s⁻¹
k2 (second-order inhibition rate constant) [17]: 223000 M⁻¹ s⁻¹
k2 (second-order inhibition rate constant) [18]: 50000 M⁻¹ s⁻¹
Substance: antithrombin (from UniProt P01008 33-464) (natural protein)
